Results published in patent US20250099534A1, “UBIQUITIN HIGH AFFINITY CYCLIC PEPTIDES AND METHODS OF USE THEREOF” (TECHNION RESEARCH & DEVELOPMENT FOUNDATION LIMITED, priority 2022, published 2025).
Read-outs that look alike come from different tables or passages of the source. Starred links: 1 amine or outer side, 2 acyl side, 3 side chain; linkers in the order of their positions; H or OH if unused. Positions of bridges follow the written chain, without caps; N, C: chain ends. No end group written: not given here. *: point of attachment. mClBz = N-terminal group cyclised as a benzyl thioether to a Cys, O=C(c1cccc(C[*:3])c1)[*:2]; C6F5 = pentafluorophenyl group on the Cys sulfur, Fc1c(F)c(F)c(*)c(F)c1F

Key:
[1] = target: Lys63-linked Ub chains (on proteins in cells and in U2OS lysate); assay: cell-based or functional assay
[2] = target: Lys63-linked Ub chains (on proteins in cells and in U2OS lysate); assay: cell-based or functional assay; remark: listed apart in the source

Row | Binder | increase in the population of HeLa cells at G2/M phase, flow cytometry, 72 h [1] [%] | increase in the population of HeLa cells at G2/M phase, flow cytometry, 96 h [1] [%] | increase of overall Annexin V positive HeLa cells, 96 h [1] [%] | relative tail moment, comet assay, U2OS cells [1] [fold] | γ-H2AX level, western blot, HeLa cells [1] [fold] | γ-H2AX level, western blot, U2OS cells [1] [fold] | γ-H2AX level, western blot, HeLa cells [2] [fold] | γ-H2AX level, western blot, U2OS cells [2] [fold]
1 | mClBz-CLIWIGSSKNPYILCG (bridge N-15; not fully specified (C-terminus, bridges)) [cyclic peptide 2 (CP1-L1C)] | 5.2 | 13 | 14.5 | 8 | 3.5 | 3 |  | 
2 | mClBz-C(C6F5)LIWIGSSKNPYILCG (thioether N-15) [cyclic peptide 20, CP1-L1C-C6F5] |  |  |  |  |  |  | 2.4 | 1.8
